Target: Metallothionein-2 (UniProt P02795)
Assay: SPR

Chain of Metallothionein-2 (P02795 whole entry): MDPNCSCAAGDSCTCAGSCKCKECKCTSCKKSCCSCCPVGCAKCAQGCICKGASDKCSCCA

B1: Transgelin-2 (protein)
chain: ANRGPAYGLSREVQQKIEKQYDADLEQILIQWITTQCRKDVGRPQPGRENFQNWLKDGTVLCELINALYPEGQAPVKKIQASTMAFKQMEQISQFLQAAERYGINTTDIFQTVDLWEGKNMACVQRTLMNLGGLAVARDDGLFSGDPNWFPKKSKENPRNFSDNQLQEGKNVIGLQMGTNRGASQAGMTGYGMPRQIL
Q: For B1, which Kd is on record?
A: 110 nM

— paper PMC6310021 (2018)
